Key:
[1] = analytical gel filtration (Superdex200), apparent molecular weight; type: physicochemical
Description: In the fusion protein of GLP-1(A8G/G22E)-Fn8-COL18NC1 described in example 4, the flexible unstructured linker between Fn8 and COL18NC1 contains six residues (GGGSGG; SEQ ID NO:89). To generate the flexible un-structured linkers with different lengths, we have synthesized the genes GLP-1(A8G/G22E/R36S)-Fn8-COL18NC1-20, GLP-1(A8G/G22E/R36S)-Fn8-COL18NC1-30, GLP-1(A8G/G22E/R36S)-Fn8-COL18NC1-54 and GLP-1(A8G/G22E/R36S)-Fn8-COL18NC1-60. In these genes, the length of the flexible unstructured polypeptide linker between Fn8 and COL18NC1 contained 20, 30, 54 and 60 residues, respectively. The protein sequences of GLP-1(A8G/G22E/R36S)-Fn8-COL18NC1-20, GLP-1(A8G/G22E/R36S)-Fn8-COL18NC1-30, GLP-1(A8G/G22E/R36S)-Fn8-COL18NC1-54 and GLP-1(A8G/G22E/R36S)-Fn8-COL18NC1-60 are listed as SEQ ID NO:8-11. The synthetic genes of GLP-1(A8G/G22E/R36S)-Fn8-COL18NC1-20, GLP-1(A8G/G22E/R36S)-Fn8-COL18NC1-30, GLP-1(A8G/G22E/R36S)-Fn8-COL18NC1-54 and GLP-1(A8G/G22E/R36S)-Fn8-COL18NC1-60 were grafted to the pET29b by NdeI and XhoI for protein expressions. The expression and purification of these fusion proteins were carried out using similar protocols described in example 3. To estimate the hydrodynamic radius and/or the Rg of the fusion proteins, the purified proteins were loaded on an analytical gel filtration column Superdex200 (GE Healthcare).
Moreover, the flexible unstructured linker between the therapeutic polypeptide and the scaffold protein may adjust the hydrodynamic radius and/or the Rg of the fusion molecule in a tunable manner.
The apparent molecular weights of the fusion proteins were estimated by use of an analytical gel filtration column Superdex-200 (GE Healthcare) mounted on the AKTA FPLC system (GE Healthcare). The purified fusion proteins GLP-1-Fn8, GLP-1-Fn8-COL18NC1, GLP-1(A8G/G22E/R36G)-Fn8-p246-COL18NC1 were loaded on the Superdex200 column. GLP-1-Fn8 is a fusion protein of GLP-1 and Fn8 and contains the first 144 amino acid residues of the fusion protein GLP-1-Fn8-COL18NC1 (SEQ ID NO:2). […] The genuine molecular weights for the fusion proteins GLP-1-Fn8 monomer, GLP-1-Fn8-COL18NC1 trimer, and GLP-1(A8G/G22E/R36G)-Fn8-p246-COL18NC1 trimer were ˜15 Kd, 65 Kd and 123Kd, respectively.

[2] = pharmacokinetics in cynomolgus monkeys, sandwich ELISA; type: in vivo; details: subcutaneous, 5 nmol/kg
Procedure: The GLP-1 concentrations within the samples were examined by use of the sandwich ELISA method. The rabbit polyclonal antibody against human Fibronectin at the concentration of 3 ug/ml (Ab299, Abcam company) was coated on ELISA plate for 1 hour at room temperature. Then the plate was washed by PBST buffer three times and the wells were blocked by PBS with 10% FBS for 1 hour at room temperature. The plate was washed three times before the serum samples containing GLP-1 fusion proteins were added. The serum samples could be diluted to 20-10000 folds before use. The ELISA plate was incubated with the serum samples at room temperature for 1 hour and then washed by PBST buffer five times. Then mouse monoclonal against human GLP-1 peptide antibody (sc57510, Santa Cruz Biotechnology) at the concentration of 1 ug/ml in PBST buffer was added to the wells. The plate was washed extensively after incubation of 1 hour at room temperature. The secondary antibody, […] HRP conjugated antibody (Beijing ZSGB-Bio company, ZB 5301), was added into the wells and the color was developed using TMB (3,3′,5,5′-tetramethylbenzidine, BD Biosciences, Cat 555214). The plate reader (Bio-Rad microplate reader Model 680) was utilized to obtain the OD450 readings. This method has been calibrated using purified proteins first.
To further investigate the pharmacokinetics profiles for the GLP-1 containing fusion proteins generated using the method of the invention, the fusion protein GLP1(A8G/G22E/R36G)-Fn8-p246-COL18NC1 was administrated into the cynomolgus monkeys by subcutaneous injection. The fusion protein was administered on three cynomolgus monkeys at the dose of 5 nmol/kg. Blood samples were taken at various time points after injections such as 0-min, 2-hour, 4-hour, 6-hour, 8-hour, 24-hour, 48-hour, and daily until the 15th day. The serum samples were centrifuged and kept at −80° C. freezer. The concentrations of the fusion protein within the serum samples were examined by using the sandwich ELISA method described above. The pharmacokinetics profile of the fusion protein GLP1(A8G/G22E/R36G)-Fn8-p246-COL18NC1 in cynomolgus monkeys was shown in FIG. 8. The pharmacokinetics parameters were obtained by using the WinNonlin software (Table 5).

B1: GLP1(A8G/G22E/R36G)-Fn8-p246-COL18NC1: GLP-1 mutant, Fn8, pCloud p246, COL18NC1 fusion; SEQ ID NO: 16 (protein)
chain: HGEGTFTSDVSSYLEEQAAKEFIAWLVKGGGSGGGSGGGSGGGSGGGSGSGGAVPPPTDLRFTNIGPDTMRVTWAPPPSIDLTNFLVRYSPVKNEEDVAELSISPSDNAVVLTNLLPGTEYVVSVSSVYEQHESTPLRGRQKTGGGGSGGGSGSGSESGSGGGSTSSGTGSETESPGSGSESGSGPSSAGSGSGSESGSGSGSSGPGSTGGSGSESGSGPGSSGTGGTATGSGSESGSGPGSSGPGSTGSGSGSESGSGSGSSGTGSTGGSGSESGSGPGSPRPGSTGTGSGSESGSGPGSSERGSAGGSGSESGSGTSESSASGSTGGSGSESGSGSESGSGSGSESGSGPESPGSGGSGSESGSGTSGSTGSGSESGSGGGSGGGSGGGASSGVRLWATRQAMLGQVHEVPEGWLIFVAEQEELYVRVQNGFRKVQLEARTPLPRG
For B1, the apparent molecular weight [1] was ~550 Kd, the AUCall ([2]; Monkey) was 1267.8 µg·h/mL and the CL/F ([2]; Monkey) was 11.5 mL/day/kg. It also gave a Cmax ([2]; Monkey) of 8210 ng/mL, a T½ ([2]; Monkey) of 67.3 h and a Vss ([2]; Monkey) of 0.0516 L/kg. The half life ([2]; cynomolgus monkeys) was ~67 h.
